Measurements from US9555076B2, “Neuregulin based methods and compositions for treating cardiovascular diseases” (Zensun (Shanghai) Science & Technology, Co., Ltd., priority 2002, dated 2017).
“And” between values parts separate entries of the source, which are not always exact repeats. Equal entries are not always repeated. Marks after values point to notes of the source that are not given here.

Tested on: acute myocardial injury caused by viral (Coxsackie B3) infection in mice
Assay: Survival of mice infected with Coxsackie B3 virus
Format: in vivo, BALB/C mice
Details: for relative survival rate: mice
Method: 0.2 ml of 100×TCID50 CVB3 provided by Zhong Shan Hospital affiliated to Fudan University was injected intra-abdominally and established myocarditis model. Within the following week, the mouse manifested pilo-erection, depilation, emaciation, dullness and death, about half of the tested animals died at the 8th day.
Intravenous injection of the testing drug into the tail vein was carried out the same day of intra-abdominal viral infection in mice, the injection was performed for consecutive 5 days, animal survival rate was monitored, after completion of the experiment, echocardiograph, myocardial pathologic examination, serum troponin determination were carried out.
The death status of model animals in various testing drug group was monitored.
• Normal mice control group, model group and testing drug group were set up; • Normal mice control group (n=10); • Model group (n=20): Prepared buffer solution was injected; • Testing drug group (n=20): […] courses with 20 animals assigned for each group; • Placebo control group (n=20): Intra-abdominal injection of non-CVB3 freeze-thaw cellular supernatant, 0.2 ml/animal. 10.2 Dosage Set Up, Preparation of Testing Drug, Route of Drug Administration, Times of Drug Administration, Concentration and Volume of the Testing Drug • rhNRG-1β was diluted with preparation buffer solution (10 mM PB, 0.2% human serum albumin, 5% mannitol to needed concentration; • Three drug administration groups were set up, intravenous injection for consecutive 3-day, 5-day and 7-day, drug volume for each dose was 0.2 ml/animal; • Drug administration of the model group was intravenous injection into the tail vein of mice, once every day (qd), for consecutive 7 days, drug volume for each dose was 0.2 ml/animal. 7.3 Method of the Experiment 7.3.1 Set Up of Acute Viral Myocariditis Animal Model in Mice

B1: rhNRG-1 β: Recombinant human neuregulin fragment of 61 amino acid (SEQ ID NO:4), 3 disulfide bonds, expressed in E. coli (protein, listed as Homo sapiens)
chain: SHLVKCAEKEKTFCVNGGECFMVKDLSNPSRYLCKCPNEFTGDRCQNYVMASFYKAEELYQ
modifications: disulfide (positions not given here)
- Number of survival animals (mice n = 20, 30 μg/kg iv qd × 7, 7th day, (II)): 18
- Number of survival animal (mice n = 20, 30 μg/kg iv qd × 7, killed, (I)): 17*
- Number of survival animals (mice n = 20, 30 μg/kg iv qd × 7, killed, (II)): 18*
- relative survival rate (5 μg/kg (so in the source) iv qd × 5, 1st day, (I)): 100%
- relative survival rate (5 μg/kg (so in the source) iv qd × 5, 2nd day, (I)): 100%
- relative survival rate (5 μg/kg (so in the source) iv qd × 5, 3rd day, (I)): 100%
- relative survival rate (5 μg/kg (so in the source) iv qd × 5, 4th day, (I)): 95%
- relative survival rate (5 μg/kg (so in the source) iv qd × 5, 5th day, (I)): 90%
- relative survival rate (5 μg/kg (so in the source) iv qd × 5, 6th day, (I)): 75%
- relative survival rate (5 μg/kg (so in the source) iv qd × 5, 7th day, (I)): 65%
- relative survival rate (5 μg/kg (so in the source) iv qd × 5, killed, (I)): 50%
- relative survival rate (7.5 μg/kg iv qd × 5, 1st day, (II)): 100%
- relative survival rate (7.5 μg/kg iv qd × 5, 2nd day, (II)): 100%
- relative survival rate (7.5 μg/kg iv qd × 5, 3rd day, (II)): 100%
- relative survival rate (7.5 μg/kg iv qd × 5, 4th day, (II)): 90%
- relative survival rate (7.5 μg/kg iv qd × 5, 5th day, (II)): 85%
- relative survival rate (7.5 μg/kg iv qd × 5, 6th day, (II)): 70%
- relative survival rate (7.5 μg/kg iv qd × 5, 7th day, (II)): 55%
- relative survival rate (7.5 μg/kg iv qd × 5, killed, (II)): 50%
- relative survival rate (15 μg/kg iv qd × 5, 1st day, (I)): 100%
- relative survival rate (15 μg/kg iv qd × 5, 1st day, (II)): 100%
- relative survival rate (15 μg/kg iv qd × 5, 2nd day, (I)): 100%
- relative survival rate (15 μg/kg iv qd × 5, 2nd day, (II)): 100%
- relative survival rate (15 μg/kg iv qd × 5, 3rd day, (I)): 100%
- relative survival rate (15 μg/kg iv qd × 5, 3rd day, (II)): 100%
- relative survival rate (15 μg/kg iv qd × 5, 4th day, (I)): 100%
- relative survival rate (15 μg/kg iv qd × 5, 4th day, (II)): 95%
- relative survival rate (15 μg/kg iv qd × 5, 5th day, (I)): 95%
- relative survival rate (15 μg/kg iv qd × 5, 5th day, (II)): 90%
- relative survival rate (15 μg/kg iv qd × 5, 6th day, (I)): 85%
- relative survival rate (15 μg/kg iv qd × 5, 6th day, (II)): 80%
- relative survival rate (15 μg/kg iv qd × 5, 7th day, (I)): 70%
- relative survival rate (15 μg/kg iv qd × 5, 7th day, (II)): 65%
- relative survival rate (15 μg/kg iv qd × 5, killed, (I)): 65%
- relative survival rate (15 μg/kg iv qd × 5, killed, (II)): 65%
- relative survival rate (30 μg/kg iv qd × 3, 1st day, (I)): 100%
- relative survival rate (30 μg/kg iv qd × 3, 1st day, (II)): 100%
- relative survival rate (30 μg/kg iv qd × 3, 2nd day, (I)): 100%
- relative survival rate (30 μg/kg iv qd × 3, 2nd day, (II)): 100%
- relative survival rate (30 μg/kg iv qd × 3, 3rd day, (I)): 100%
- relative survival rate (30 μg/kg iv qd × 3, 3rd day, (II)): 100%
- relative survival rate (30 μg/kg iv qd × 3, 4th day, (I)): 95%
- relative survival rate (30 μg/kg iv qd × 3, 4th day, (II)): 100%
- relative survival rate (30 μg/kg iv qd × 3, 5th day, (I)): 90%
- relative survival rate (30 μg/kg iv qd × 3, 5th day, (II)): 95%
- relative survival rate (30 μg/kg iv qd × 3, 6th day, (I)): 80%
- relative survival rate (30 μg/kg iv qd × 3, 6th day, (II)): 80%
- relative survival rate (30 μg/kg iv qd × 3, 7th day, (I)): 70%
- relative survival rate (30 μg/kg iv qd × 3, 7th day, (II)): 75%
- relative survival rate (30 μg/kg iv qd × 3, killed, (I)): 65%
- relative survival rate (30 μg/kg iv qd × 3, killed, (II)): 75%
- relative survival rate (30 μg/kg iv qd × 5, 1st day, (I)): 100%
- relative survival rate (30 μg/kg iv qd × 5, 1st day, (II)): 100%
- relative survival rate (30 μg/kg iv qd × 5, 1st day, Example 5 (I)): 100%
- relative survival rate (30 μg/kg iv qd × 5, 1st day, Example 5 (II)): 100%
- relative survival rate (30 μg/kg iv qd × 5, 2nd day, (I)): 100%
- relative survival rate (30 μg/kg iv qd × 5, 2nd day, (II)): 100%
- relative survival rate (30 μg/kg iv qd × 5, 2nd day, Example 5 (I)): 100%
- relative survival rate (30 μg/kg iv qd × 5, 2nd day, Example 5 (II)): 100%
- relative survival rate (30 μg/kg iv qd × 5, 3rd day, (I)): 100%
- relative survival rate (30 μg/kg iv qd × 5, 3rd day, (II)): 100%
- relative survival rate (30 μg/kg iv qd × 5, 3rd day, Example 5 (I)): 100%
- relative survival rate (30 μg/kg iv qd × 5, 3rd day, Example 5 (II)): 100%
- relative survival rate (30 μg/kg iv qd × 5, 4th day, (I)): 100%
- relative survival rate (30 μg/kg iv qd × 5, 4th day, (II)): 100%
- relative survival rate (30 μg/kg iv qd × 5, 4th day, Example 5 (I)): 100%
- relative survival rate (30 μg/kg iv qd × 5, 4th day, Example 5 (II)): 100%
- relative survival rate (30 μg/kg iv qd × 5, 5th day, (I)): 100%
- relative survival rate (30 μg/kg iv qd × 5, 5th day, (II)): 95%
- relative survival rate (30 μg/kg iv qd × 5, 5th day, Example 5 (I)): 95%
- relative survival rate (30 μg/kg iv qd × 5, 5th day, Example 5 (II)): 95%
- relative survival rate (30 μg/kg iv qd × 5, 6th day, (I)): 90%
- relative survival rate (30 μg/kg iv qd × 5, 6th day, (II)): 90%
- relative survival rate (30 μg/kg iv qd × 5, 6th day, Example 5 (I)): 95%
- relative survival rate (30 μg/kg iv qd × 5, 6th day, Example 5 (II)): 95%
- relative survival rate (30 μg/kg iv qd × 5, 7th day, (I)): 85%
- relative survival rate (30 μg/kg iv qd × 5, 7th day, (II)): 85%
- relative survival rate (30 μg/kg iv qd × 5, 7th day, Example 5 (I)): 90%
- relative survival rate (30 μg/kg iv qd × 5, 7th day, Example 5 (II)): 90%
- relative survival rate (30 μg/kg iv qd × 5, killed, (I)): 80%
- relative survival rate (30 μg/kg iv qd × 5, killed, (II)): 85%
- relative survival rate (30 μg/kg iv qd × 5, killed, Example 5 (I)): 85%
- relative survival rate (30 μg/kg iv qd × 5, killed, Example 5 (II)): 80% and 90%
- relative survival rate (30 μg/kg iv qd × 7, 1st day, (I)): 100%
- relative survival rate (30 μg/kg iv qd × 7, 1st day, (II)): 100%
- relative survival rate (30 μg/kg iv qd × 7, 2nd day, (I)): 100%
- relative survival rate (30 μg/kg iv qd × 7, 2nd day, (II)): 100%
- relative survival rate (30 μg/kg iv qd × 7, 3rd day, (I)): 100%
- relative survival rate (30 μg/kg iv qd × 7, 4th day, (I)): 100%
- relative survival rate (30 μg/kg iv qd × 7, 5th day, (I)): 100%
- relative survival rate (30 μg/kg iv qd × 7, 6th day, (I)): 90%
- relative survival rate (30 μg/kg iv qd × 7, 7th day, (I)): 90%
- relative survival rate (30 μg/kg iv qd × 7, killed, (I)): 85%
- relative survival rate (30 μg/kg iv qd × 7, killed, (II)): 80%
